This note sets out measurements from paper PMC11208146, “Molecular basis for transposase activation by a dedicated AAA+ ATPase” (Nature, 2024).

Data set [1] deals with the molecule itself. Nature of the data set: cryo-EM structure; IstB wild type with a 60-mer duplex DNA (6.5:1) and 1 mM ATP; 20 mM HEPES pH 7.5, 150 mM NaCl, 5 mM MgCl2, 1 mM DTT; 3.2 Å.
Data set [2] concerns the molecule itself. In words: cryo-EM structure; IstA pre-incubated with strand-transfer-complex DNA (3.3:1), then IstB E167Q (5:1 to IstA), 37 °C; 20 mM HEPES pH 7.5, 150 mM NaCl, 5 mM MgCl2, 1 mM ATP, 1 mM DTT; 3.6 Å.

Positions count from the first letter of the chain named. Numbers in names are those of the source. Where “and” joins values, the source holds several entries; their conditions need not be identical. Equal entries are not always repeated.

B1: IstB ATPase, wild type, full length (IS5376, Geobacillus stearothermophilus) (enzyme, UniProt Q45619 1-251, looked up)
chain: MKERIHEYCHRLHLPVMAERWSAMAEYASTHNISYSEFLFRLLEAEIVEKQARSIQTLIKLSKLPYRKTIDTFDFTAQPSVDERRIRELLTLSFIDRKENILFLGPPGIGKTHLAISIGMEAIARGYKTYFITAHDLVNQLRRADQEGKLEKKLRVFVKPTVLIIDEMGYLKLDPNSAHYLFQVIARRYEHAPIILTSNKSFGEWGEIVGDSVLATAMLDRLLHHSIIFNLKGESYRLREKRLQEEKQKDQ
notes: IstB, AAA+ ATPase of the IS21 family member IS5376, Geobacillus stearothermophilus, full length; Tag cleaved on-column with PreScission protease; Assembles into a pentamer of dimers (decamer) on DNA with ATP; also called IstB WT; IstB AAA+ ATPase regulator; source: E. coli BL21 codon-plus (DE3) RIL, purified (Ni-Sepharose, amylose resin, gel filtration); not shown: His6, N-terminal, cleaved; MBP, …
In general, stoichiometry N refers to the number of molecules, sites or subunits per partner or assembly. Turning to B1, the “stoichiometry N” value in data set [1] was 10 and 8.

B2: IstB E167Q (Walker B mutant) (enzyme, Geobacillus stearothermophilus, UniProt Q45619 1-251, looked up)
chain: B1 chain with E167Q
notes: IstB, AAA+ ATPase of IS5376, Geobacillus stearothermophilus, with the Walker B mutation E167Q; The methods describe only the purification of full-length IstB (His6-MBP tag, cleaved); also called WB; source: purified
B2: the “stoichiometry N” value in data set [2] was 10 and 20.
